In patent US20200164069A1 (BOSTON PHARMACEUTICALS, published 2020):
Blank lines part the entries; values can stand above or below the binder they belong to.

What was measured:
[1] = biological target: T1, IL-21 (species not stated in the assay) (Homo sapiens (Human), UniProt Q9HBE4 25-162, Biotinylated in the competition ELISA of paragraph 259 (sites not given); unlabelled in the other results.); assay: cell-based or functional assay
recombinant human IL-21 [2] = biological target: T2, recombinant human IL-21 (human, UniProt Q9HBE4 30-162, limits assumed); assay: cell-based or functional assay
T2 sequence (Q9HBE4 30-162 limits assumed, form in doubt): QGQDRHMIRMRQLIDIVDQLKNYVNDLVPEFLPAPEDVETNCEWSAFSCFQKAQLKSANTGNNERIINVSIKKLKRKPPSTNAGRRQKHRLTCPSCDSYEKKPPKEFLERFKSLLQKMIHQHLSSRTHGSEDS

[3] = biological target: T3, recombinant cynomolgus monkey IL-21 (cynomolgus monkey (Macaca fascicularis), UniProt Q9HBE4 30-162 (human entry), limits assumed); assay: cell-based or functional assay
T3 sequence (Q9HBE4 other isoform, or with tags, fused parts or gaps limits assumed): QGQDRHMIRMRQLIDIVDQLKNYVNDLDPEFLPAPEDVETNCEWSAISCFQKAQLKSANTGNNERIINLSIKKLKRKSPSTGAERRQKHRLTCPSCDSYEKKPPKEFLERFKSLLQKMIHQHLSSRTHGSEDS

IL-4 = biological target: T4, IL-4 (UniProt P05112 25-153); assay: ELISA on plate-coated cytokine (2 µg/ml)
T4 sequence (looked up): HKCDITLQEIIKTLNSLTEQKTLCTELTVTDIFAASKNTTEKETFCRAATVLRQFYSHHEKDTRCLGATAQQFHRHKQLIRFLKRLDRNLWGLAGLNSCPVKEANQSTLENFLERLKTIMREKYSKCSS
Description: (§1) ELISA was used to test cross reactivity of lead clones. Cytokines tested include 11-2, IL-4, IL-7, IL-9, and IL-15. Maxisorp ELISA plate (NUNC) was coated with 2 μg/ml of different cytokines in PBS at 4° C. overnight. The plate was then blocked with 3% BSA in PBST (PBS+0.1% Tween) at room temperature for one hour. Purified lead clone IgGs were serially diluted in PBST+3% BSA and the mixture was then added to each ELISA plate well and further incubated at room temperature for half an hour. After washing, secondary antibody-HRP was added to each well for 1 hour. Wells were washed first with PBST and then with PBS and the TMB solution from Pierce was added to detect the secondary antibody. After 5′ the reaction was stopped by the addition of 1N sulfuric acid. The plates were then read in an ELISA reader at 450 nm to detect the binding.

IL-2 = IL-2 (UniProt P60568 21-153); assay: ELISA on plate-coated cytokine (2 µg/ml)
Chain of IL-2 (P60568 21-153 limits assumed): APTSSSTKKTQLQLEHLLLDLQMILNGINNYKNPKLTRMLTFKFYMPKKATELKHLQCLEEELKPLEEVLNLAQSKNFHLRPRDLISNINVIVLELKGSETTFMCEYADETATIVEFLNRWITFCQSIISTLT
Description: as §1

IL-15 = IL-15 (UniProt P40933 49-162); assay: ELISA on plate-coated cytokine (2 µg/ml)
Chain of IL-15 (P40933 49-162 limits assumed): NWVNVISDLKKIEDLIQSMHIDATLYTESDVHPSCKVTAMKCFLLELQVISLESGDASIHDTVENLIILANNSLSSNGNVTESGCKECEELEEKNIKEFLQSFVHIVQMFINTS
Description: as §1

IL-7 = biological target: T5, IL-7 (UniProt P13232 26-177); assay: ELISA on plate-coated cytokine (2 µg/ml)
T5 sequence (looked up): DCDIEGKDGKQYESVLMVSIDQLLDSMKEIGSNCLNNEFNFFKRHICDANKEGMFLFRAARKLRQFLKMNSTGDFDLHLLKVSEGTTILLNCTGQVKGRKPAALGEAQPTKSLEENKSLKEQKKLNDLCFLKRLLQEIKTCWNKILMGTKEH
Description: as §1

recombinant human IL-21 [4] = biological target: T2, recombinant human IL-21; assay: cell-based or functional assay; remark: listed apart in the source
[5] = biological target: T3, recombinant cynomolgus monkey IL-21; assay: cell-based or functional assay; remark: listed apart in the source
recombinant human IL-21 [6] = biological target: T2, recombinant human IL-21; assay: KinExA 3000, solution-phase equilibrium, dual curve analysis
Description: (§2) The IL-21-coated Azlactone bead slurries were diluted to 30 mL with instrument buffer (PBS, pH 7.4, 0.02% NaN3) in a bead vial and affixed to the KinExA instrument. A user-defined timing program was used to sequentially transfer the IL-21/Azlactone beads to a capillary flow cell in the instrument, and individual sample mixtures were injected over the IL-21-coated beads. Unbound sample solution was removed by washing the beads with instrument buffer. A 1- or 2-μg/mL solution of the DyLight649-labeled, goat-anti-hulgG(H+L) secondary reagent (Thermo Scientific) was passed over the beads to detect receptor (K44VHa-N56Q) that remained bound to the IL-21-coated beads. […] The amount of fluorescence that remained associated with the beads was measured, and the signal was converted to percent free receptor (K44VHa-N56Q). […] Once the data had been collected for all samples in each series (500 fM and 50 pM K44VHa-N56Q), an isotherm was generated, which plotted the amount of free K44VHa-N56Q detected at each concentration of IL-21. The resulting 2 binding curves were then evaluated in a dual curve analysis using the instrument's evaluation software (KinExA Pro Software, v. 2.0.1.26, Sapidyne) from which individual KDS for each interaction were derived.
(§3) The binding of K44VHa-N56Q to human and cynomolgus monkey IL-21 was measured by KinExA. […]

[7] = biological target: T3, recombinant cynomolgus monkey IL-21; assay: as above
Description: as §2, §3

recombinant human IL-21 [8] = biological target: T2, recombinant human IL-21; assay: cell-based or functional assay; remark: listed apart in the source
[9] = biological target: T3, recombinant cynomolgus monkey IL-21; assay: cell-based or functional assay; remark: listed apart in the source
recombinant human IL-21 [10] = biological target: T2, recombinant human IL-21; assay: cell-based or functional assay; remark: listed apart in the source
[11] = biological target: T3, recombinant cynomolgus monkey IL-21; assay: cell-based or functional assay; remark: listed apart in the source
[12] = biological target: T1, IL-21 (species not stated in the assay); assay: method not stated
recombinant human IL-21 [13] = biological target: T2, recombinant human IL-21; assay: method not stated for this clone (Table 2, column Kd hu)

T1 sequence (Q9HBE4 25-162 limits assumed): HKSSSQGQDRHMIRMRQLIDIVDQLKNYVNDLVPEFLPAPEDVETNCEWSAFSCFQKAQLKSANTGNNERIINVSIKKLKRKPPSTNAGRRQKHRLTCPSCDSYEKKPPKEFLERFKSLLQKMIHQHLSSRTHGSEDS

maximal inhibition in pSTAT3 assay [1]: 100% | IC50 in pSTAT3 assay (human PBMCs, 20 pM IL-21) (recombinant human IL-21 [2]): 17.2 pM | IC50 in pSTAT3 assay (human PBMCs, 20 pM IL-21) [3]: 19.3 pM | binding result (IL-4): no binding | binding result (IL-2): no binding | binding result (IL-15): no binding | binding result (IL-7): no binding | IC50 in NK-92 cell assay (IFNγ, 200 pM IL-21) (recombinant human IL-21 [4]): 92.7 pM | IC50 in NK-92 cell assay (IFNγ, 200 pM IL-21) [5]: 80.8 pM | Kd (recombinant human IL-21 [6]): 0.000515 nM | Kd [7]: 0.000352 nM | IC50 in PC differentiation assay (2 nM IL-21) (recombinant human IL-21 [8]): 0.777 nM | IC50 in PC differentiation assay (2 nM IL-21) [9]: 1.06 nM
B1: K44VHa-N56Q (MEDI7169) (antibody, V domains shown)
VH: QVQLVQSGAEVKKPGASVKVSCKASGYTFTDYWMHWVRQAPGQGLEWMGTIDPSDQYTIYSQNFKGRVTMTRDTSTSTVYMELSSLRSEDTAVYYCARYGFAMDYWGQGTLVTVSS
VL: DIQLTQSPSSLSASVGDRVTITCRASQDISNFLNWYQQKPGKAVKLLIYYTSRLHSGVPSRFSGSGSGTDYTLTISSLQPEDFATYYCQQGHTLPRTFGGGTKVEIK

maximal inhibition in pSTAT3 assay [1]: 100% | inhibition of IgG production by human B cells (recombinant human IL-21 [10]): 97% | inhibition of IgG production by human B cells [11]: 79% | IC50 in pSTAT3 assay (human PBMCs, 20 pM IL-21) (recombinant human IL-21 [2]): 21.7 pM | IC50 in pSTAT3 assay (human PBMCs, 20 pM IL-21) [3]: 83.2 pM | Kd [12]: 10 nM | binding result (IL-4): no binding | binding result (IL-2): no binding | binding result (IL-7): no binding | IC50 in NK-92 cell assay (IFNγ, 200 pM IL-21) (recombinant human IL-21 [4]): 462 pM | IC50 in NK-92 cell assay (IFNγ, 200 pM IL-21) [5]: 867 pM | Kd (recombinant human IL-21 [13]): 0.00999 nM | IC50 in PC differentiation assay (2 nM IL-21) (recombinant human IL-21 [8]): 47.3 nM | IC50 in PC differentiation assay (2 nM IL-21) [9]: 74 nM
B2: murine monoclonal antibody 9F11 (antibody, V domains shown)
VH: EVELVESGGGLVQPGGSMKLSCAASGFTFSDAWMDWVRQSPEKGLEWVAEIRSEADNHPTYYAESVKGRFTISRDDSKSSVYLQMNSLRAEDSGIYYCTEYDYEGFVHWGQGTLVTVSA
VL: DIVLTQSPASLAVSLGQRATISCRASKSVSTYGYSYMHWYQQKPGQPPKLLIYLASNLESGVPARFSGSGSGTDFTLNIHPVEEEDAATYYCQHSRELPLTFGAGTKLELK
notes: also called 9F11.1
